Results as given in patent US20120135923A1, “Use of Melanocortins to Treat Dyslipidemia” (IPSEN PHARMA, S.A.S., priority 2009, published 2012).
Bridge positions count the residues as written; N and C are the ends. Square brackets hold non-standard residues; d marks the D form. Ends that are not written are not given here. Orn = NCCC[C@H](N)C(=O)O; Dab = NCC[C@H](N)C(=O)O; Dap = NC[C@H](N)C(=O)O

Experiments:
[1] = molecular target: human melanocortin receptor subtype 3 (hMC3-R) (human) (UniProt P41968); test: [125I]-NDP-α-MSH competition, membranes
Sequence of human melanocortin receptor subtype 3 (hMC3-R) (human) (P41968 whole entry): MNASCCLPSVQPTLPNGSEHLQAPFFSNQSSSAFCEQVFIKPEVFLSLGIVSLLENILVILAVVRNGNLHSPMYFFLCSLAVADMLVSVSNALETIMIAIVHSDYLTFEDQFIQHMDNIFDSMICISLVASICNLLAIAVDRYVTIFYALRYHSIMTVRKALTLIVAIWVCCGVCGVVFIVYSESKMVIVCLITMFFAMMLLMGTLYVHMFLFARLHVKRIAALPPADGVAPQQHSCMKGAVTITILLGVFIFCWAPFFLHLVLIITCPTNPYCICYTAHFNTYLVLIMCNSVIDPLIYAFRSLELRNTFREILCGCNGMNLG

[2] = molecular target: human melanocortin receptor subtype 5 (hMC5-R) (human) (UniProt P33032); test: [125I]-NDP-α-MSH competition, membranes
Sequence of human melanocortin receptor subtype 5 (hMC5-R) (human) (P33032 whole entry): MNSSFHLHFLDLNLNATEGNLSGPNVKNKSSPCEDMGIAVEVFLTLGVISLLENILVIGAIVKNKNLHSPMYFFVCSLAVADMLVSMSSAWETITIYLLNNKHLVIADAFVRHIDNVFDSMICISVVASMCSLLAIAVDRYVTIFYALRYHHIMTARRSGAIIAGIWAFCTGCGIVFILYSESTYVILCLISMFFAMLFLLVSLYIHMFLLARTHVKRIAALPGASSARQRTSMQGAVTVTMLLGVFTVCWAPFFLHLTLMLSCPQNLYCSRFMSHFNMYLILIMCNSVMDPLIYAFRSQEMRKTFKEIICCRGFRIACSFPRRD

[3] = molecular target: human melanocortin receptor subtype 1 (hMC1-R) (human) (UniProt Q01726); test: [125I]-NDP-α-MSH competition, membranes
Sequence of human melanocortin receptor subtype 1 (hMC1-R) (human) (Q01726 whole entry): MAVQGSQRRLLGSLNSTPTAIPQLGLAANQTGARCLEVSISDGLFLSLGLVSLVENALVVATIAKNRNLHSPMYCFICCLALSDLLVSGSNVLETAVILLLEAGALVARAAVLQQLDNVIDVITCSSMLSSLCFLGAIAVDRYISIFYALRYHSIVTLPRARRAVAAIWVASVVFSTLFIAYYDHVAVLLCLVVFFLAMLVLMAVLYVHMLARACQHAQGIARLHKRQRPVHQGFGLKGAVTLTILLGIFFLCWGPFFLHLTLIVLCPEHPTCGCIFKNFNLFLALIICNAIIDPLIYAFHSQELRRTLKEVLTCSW

[4] = molecular target: human melanocortin receptor subtype 4 (hMC4-R) (human) (UniProt P32245); test: [125I]-NDP-α-MSH competition, membranes
Sequence of human melanocortin receptor subtype 4 (hMC4-R) (human) (P32245 whole entry): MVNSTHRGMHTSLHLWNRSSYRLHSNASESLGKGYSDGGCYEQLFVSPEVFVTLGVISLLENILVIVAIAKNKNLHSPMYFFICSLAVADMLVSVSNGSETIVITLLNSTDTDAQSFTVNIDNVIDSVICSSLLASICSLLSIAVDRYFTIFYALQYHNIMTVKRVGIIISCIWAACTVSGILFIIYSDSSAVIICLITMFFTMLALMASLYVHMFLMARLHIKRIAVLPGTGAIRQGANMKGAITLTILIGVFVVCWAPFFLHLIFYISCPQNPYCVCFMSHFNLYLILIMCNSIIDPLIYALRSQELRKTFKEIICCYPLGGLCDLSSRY

hMC4-R (human) = hMC4-R (human) (UniProt P32245); test: cell-based or functional assay
Sequence of hMC4-R (human) (P32245 whole entry): as above

hMC1-R (human) = hMC1-R (human) (UniProt Q01726); test: cell-based or functional assay
Sequence of hMC1-R (human) (Q01726 whole entry): as the sequence (Q01726 whole entry) above

hMC3-R (human) = hMC3-R (human) (UniProt P41968); test: cell-based or functional assay
Sequence of hMC3-R (human) (P41968 whole entry): as the sequence (P41968 whole entry) above

hMC5-R (human) = hMC5-R (human) (UniProt P33032); test: cell-based or functional assay
Sequence of hMC5-R (human) (P33032 whole entry): as the sequence (P33032 whole entry) above

[5] = molecular target: human melanocortin receptor subtype 5 (hMC5-R) (human), P33032; test: [125I]-NDP-α-MSH competition, membranes
Sequence of human melanocortin receptor subtype 5 (hMC5-R) (human), P33032 (P33032 whole entry): as above

[6] = molecular target: human melanocortin receptor subtype 1 (hMC1-R) (human), Q01726; test: [125I]-NDP-α-MSH competition, membranes
Sequence of human melanocortin receptor subtype 1 (hMC1-R) (human), Q01726 (Q01726 whole entry): as the sequence (Q01726 whole entry) above

[7] = molecular target: human melanocortin receptor subtype 4 (hMC4-R) (human), P32245; test: [125I]-NDP-α-MSH competition, membranes
Sequence of human melanocortin receptor subtype 4 (hMC4-R) (human), P32245 (P32245 whole entry): as the sequence (P32245 whole entry) above

[8] = molecular target: human melanocortin receptor subtype 3 (hMC3-R) (human), P41968; test: [125I]-NDP-α-MSH competition, membranes
Sequence of human melanocortin receptor subtype 3 (hMC3-R) (human), P41968 (P41968 whole entry): as the sequence (P41968 whole entry) above

hMC5-R (human), P33032 = test: competition with [125I]-NDP-α-MSH, CHO-K1 membranes
Sequence of hMC5-R (human), P33032 (P33032 whole entry): as the sequence (P33032 whole entry) above

| Binder | Ki [1] | Ki [3] | Ki [4] | Ki [5] | Ki [6] | Ki [7] | Ki [8] | also measured |
| --- | --- | --- | --- | --- | --- | --- | --- | --- |
| D[dA]H[dF]RW[Orn]-NH2 (lactam 1-7; also: residues 1-2 joined in a hydantoin ring (C(O))) [c[Hydantoin(C(O)-(Asp-D-Ala))-His-D-Phe-Arg-Trp-Orn]-NH2] | 576 nM | 37.7 nM | 7.81 nM |  |  |  |  | Ki [2]: 6400 nM; cAMP EC50 (hMC4-R (human)): 4.5 nM; cAMP EC50 (hMC1-R (human)): 56.6 nM; cAMP EC50 (hMC3-R (human)): 88.6 nM; cAMP EC50 (hMC5-R (human)): 9300 nM |
| E[dA]H[dF]RW[Dap]-NH2 (lactam 1-7 (inferred); also: residues 1-2 joined in a hydantoin ring (C(O))) [c[Hydantoin(C(O)-(Glu-D-Ala))-His-D-Phe-Arg-Trp-Dap]-NH2] | 863 nM | 16.4 nM | 4.97 nM |  |  |  |  | cAMP EC50 (hMC4-R (human)): 0.182 nM; cAMP EC50 (hMC1-R (human)): 56.7 nM; cAMP EC50 (hMC3-R (human)): 18.2 nM; cAMP EC50 (hMC5-R (human)): > 10000 nM |
| Ac-FRC[dA]H[dF]RWC-NH2 (disulfide 3-9; SMILES CC(=O)N[C@@H](Cc1ccccc1)C(=O)N[C@@H](CCCNC(=N)N)C(=O)N[C@H]1CSSC[C@@H](C(N)=O)NC(=O)[C@H](Cc2c[nH]c3ccccc23)NC(=O)[C@H](CCCNC(=N)N)NC(=O)[C@@H](Cc2ccccc2)NC(=O)[C@H](Cc2c[nH]cn2)NC(=O)[C@@H](C)NC1=O) [Ac-Phe-Arg-c(Cys-D-Ala-His-D-Phe-Arg-Trp-Cys)-NH2] |  |  |  | 491 nM | 1.48 nM | 2.34 nM | 14.8 nM |  |
| RGC[dA]H[dF]RWC-NH2 (disulfide 3-9; also: hydantoin ring: C(O) bridging Arg-Gly) [Hydantoin(C(O)-(Arg-Gly))-c(Cys-D-Ala-His-D-Phe-Arg-Trp-Cys)-NH2] |  |  |  | 650 nM | 2.65 nM | 4.17 nM | 41.3 nM |  |
| Ac-WRC[dA]H[dF]RWC-NH2 (disulfide 3-9; SMILES CC(=O)N[C@@H](Cc1c[nH]c2ccccc12)C(=O)N[C@@H](CCCNC(=N)N)C(=O)N[C@H]1CSSC[C@@H](C(N)=O)NC(=O)[C@H](Cc2c[nH]c3ccccc23)NC(=O)[C@H](CCCNC(=N)N)NC(=O)[C@@H](Cc2ccccc2)NC(=O)[C@H](Cc2c[nH]cn2)NC(=O)[C@@H](C)NC1=O) [Ac-Trp-Arg-c(Cys-D-Ala-His-D-Phe-Arg-Trp-Cys)-NH2] |  |  |  | 1470 nM | 4.7 nM | 2.25 nM | 42 nM |  |
| D[dA]H[dF]RW[Dap]-NH2 (lactam 1-7; also: residues 1-2 joined in a hydantoin ring (C(O))) [c[Hydantoin(C(O)-(Asp-D-Ala))-His-D-Phe-Arg-Trp-Dap]-NH2] | 1820 nM | 66.6 nM | 19.9 nM |  |  |  |  | cAMP EC50 (hMC4-R (human)): 2.12 nM; cAMP EC50 (hMC3-R (human)): 49.3 nM |
| Ac-RC[dA]H[dF]RWC-NH2 (disulfide 2-8) [Ac-Arg-c(Cys-D-Ala-His-D-Phe-Arg-Trp-Cys)-NH2] |  |  |  |  |  |  |  | Ki (hMC5-R (human), P33032): 430 nM |
| E[dA]H[dF]RW[Dab]-NH2 (lactam 1-7; also: hydantoin ring from C(O) with Glu1-D-Ala2) [c[Hydantoin(C(O)-(Glu-D-Ala))-His-D-Phe-Arg-Trp-Dab]-NH2] | 90.5 nM | 28 nM | 12.7 nM |  |  |  |  | Ki [2]: 877 nM |

More lines, main results first:

| Ki [1] | Ki [3] | Ki [4] | Ki [5] | Ki [6] | Ki [7] | Ki [8] | Binder | also measured |
| --- | --- | --- | --- | --- | --- | --- | --- | --- |
|  |  |  | 783 nM | 1.14 nM | 4.53 nM | 1.7 nM | GRC[dA]H[dF]RWC-NH2 (disulfide 3-9; also: hydantoin ring from C(O) with Gly1-Arg2) [Hydantoin(C(O)-(Gly-Arg))-c(Cys-D-Ala-His-D-Phe-Arg-Trp-Cys)-NH2] |  |
|  |  |  | 33.4 nM | 15.3 nM | 8.66 nM | 160 nM | VGC[dA]H[dF]RWC-NH2 (disulfide 3-9; also: hydantoin ring from C(O) with Val1-Gly2) [Hydantoin(C(O)-(Val-Gly))-c(Cys-D-Ala-His-D-Phe-Arg-Trp-Cys)-NH2] |  |
| 2840 nM | 60.4 nM | 52.4 nM |  |  |  |  | E[dA]H[dF]RW[Orn]-NH2 (lactam 1-7 (inferred); also: residues 1-2 joined in a hydantoin ring (C(O))) [c[Hydantoin(C(O)-(Glu-D-Ala))-His-D-Phe-Arg-Trp-Orn]-NH2] | cAMP EC50 (hMC4-R (human)): 4.94 nM; cAMP EC50 (hMC3-R (human)): 39.2 nM |
| 1920 nM | 72.6 nM | 45.2 nM |  |  |  |  | E[dA]H[dF]RWK-NH2 (lactam 1-7 (inferred); also: hydantoin ring from C(O) with Glu1-D-Ala2) [c[Hydantoin(C(O)-(Glu-D-Ala))-His-D-Phe-Arg-Trp-Lys]-NH2] |  |
| 29.2 nM | 3.51 nM | 6.04 nM |  |  |  |  | G[dR]C[dA]H[dF]RWC-NH2 (bridge N-2 via C(O) hydantoin; disulfide 3-9; not fully specified) [Hydantoin(C(O)-(Gly-D-Arg))-c(Cys-D-Ala-His-D-Phe-Arg-Trp-Cys)-NH2] | Ki [2]: 914 nM |
|  |  |  | 44.6 nM | 19.3 nM | 26.7 nM | 331 nM | LGC[dA]H[dF]RWC-NH2 (disulfide 3-9; also: hydantoin ring from C(O) with Leu1-Gly2) [Hydantoin(C(O)-(Leu-Gly))-c(Cys-D-Ala-His-D-Phe-Arg-Trp-Cys)-NH2] |  |
|  |  |  | 28.9 nM | 11.6 nM | 11.5 nM | 194 nM | IGC[dA]H[dF]RWC-NH2 (disulfide 3-9; also: hydantoin ring from C(O) with Ile1-Gly2) [Hydantoin(C(O)-(Ile-Gly))-c(Cys-D-Ala-His-D-Phe-Arg-Trp-Cys)-NH2] |  |
